Literature values, collected in patent publication US20220280439A1, “METHODS FOR LOWERING THE INFECTION RATE OF VIRUSES” (Finncure Oy, priority 2020, published 2022).

Target: ACE2 (Homo sapiens, UniProt Q9BYF1)
Settings: simulation, ref [8]; for binding affinity towards the ACE2 receptor: compared with hexapeptide YKYRYL

Chain of ACE2 (Q9BYF1 18-805): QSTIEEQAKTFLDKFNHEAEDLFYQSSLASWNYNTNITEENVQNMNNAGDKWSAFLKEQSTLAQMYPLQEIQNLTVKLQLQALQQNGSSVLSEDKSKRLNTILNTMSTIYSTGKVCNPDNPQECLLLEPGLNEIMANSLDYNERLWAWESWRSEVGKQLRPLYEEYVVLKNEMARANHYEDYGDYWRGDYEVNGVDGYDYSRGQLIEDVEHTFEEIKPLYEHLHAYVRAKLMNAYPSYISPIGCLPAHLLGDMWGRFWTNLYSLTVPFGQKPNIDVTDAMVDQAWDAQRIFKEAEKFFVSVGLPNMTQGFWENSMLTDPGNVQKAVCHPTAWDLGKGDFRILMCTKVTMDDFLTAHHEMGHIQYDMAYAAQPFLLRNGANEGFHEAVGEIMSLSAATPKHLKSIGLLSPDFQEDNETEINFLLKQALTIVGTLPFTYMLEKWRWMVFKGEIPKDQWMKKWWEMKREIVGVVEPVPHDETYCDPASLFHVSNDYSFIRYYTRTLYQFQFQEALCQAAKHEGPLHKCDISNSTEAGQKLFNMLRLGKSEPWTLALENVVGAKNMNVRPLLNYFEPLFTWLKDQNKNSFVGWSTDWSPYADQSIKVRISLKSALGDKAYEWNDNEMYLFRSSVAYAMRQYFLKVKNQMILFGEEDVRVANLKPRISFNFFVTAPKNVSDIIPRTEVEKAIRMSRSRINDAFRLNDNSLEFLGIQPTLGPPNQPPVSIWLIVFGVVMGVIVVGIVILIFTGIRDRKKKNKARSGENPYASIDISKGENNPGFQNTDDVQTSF

Row | Substance | binding affinity towards the ACE2 receptor | Kd (binding to ACE2, estimated) [µM]
1 | YKYNYL (Potential alternative synthetic hexapeptide variant) [alternative synthetic hexapeptide variant from simulation] | even stronger binding affinity | –
2 | YKYNYI (Potential alternative synthetic hexapeptide variant) [alternative synthetic hexapeptide variant from simulation] | even stronger binding affinity | –
3 | YKYRYL | – | 46
